One assay addresses HLA-A*02:01. The assay can be described thus: IEDB peptide-MHC binding, purified MHC/competitive/fluorescence; filed as Kd, often an IC50 or EC50 that approximates it; ≥ and ≤ were set here for values at or beyond the usual limits of such assays.
The target of a further assay is HLA-A*02:03. The description is as above.
The target in another assay is HLA-A*02:11. Described as above.
The target in the next assay is HLA-A*02:12. The assay is described as above.
For a further assay, the target named is HLA-A*02:16. The assay is described as above.
A further assay deals with HLA-A*02:19. The description is as above.
Another assay has as its target HLA-A*03:01. The description is as above.
A further assay deals with HLA-A*24:03. The assay is described as above.
The target of assay [1] is HLA-A*26:01. The assay is described as above.
The target of a further assay is HLA-A*68:02. The description is as above. Conditions: source organism: Giardia lamblia ATCC 50803.
In another assay the target is HLA-A*69:01. The description is as above. The following applies: source organism: Giardia lamblia ATCC 50803.
In a further assay the target is HLA-B*18:01. Described as above.
The target in assay [2] is HLA-B*27:03. Described as above.
In the next assay the target is HLA-B*39:01. The description is as above.
For assay [3], the target named is HLA-B*51:01. The assay is described as above.
The target of the next assay is HLA-B*57:01. The assay is described as above.
The next assay has as its target HLA-C*14:02. The assay can be described thus: IEDB peptide-MHC binding, purified MHC/direct/fluorescence; filed as Kd, often an IC50 or EC50 that approximates it; ≥ and ≤ were set here for values at or beyond the usual limits of such assays. Conditions: source organism: Mycobacterium tuberculosis str. Haarlem.
The target of a further assay is HLA-C*06:02. The description is as above. The following applies: source organism: Homo sapiens.
The next assay addresses HLA-A*01:01. The assay can be described thus: IEDB peptide-MHC binding, purified MHC/competitive/fluorescence; filed as Kd, often an IC50 or EC50 that approximates it; ≥ and ≤ were set here for values at or beyond the usual limits of such assays.
The target in another assay is HLA-A*29:02. Described as above.
For another assay, the target named is HLA-B*58:01. Described as above.
A further assay has as its target HLA-B*15:09. The assay can be described thus: IEDB peptide-MHC binding, purified MHC/direct/fluorescence; filed as Kd, often an IC50 or EC50 that approximates it; ≥ and ≤ were set here for values at or beyond the usual limits of such assays.
For assay [4], the target named is HLA-A*26:01. The assay is described as above. Conditions: source organism: Vibrio parahaemolyticus AQ3810.
Assay [5] concerns the target HLA-B*15:01. The description is as above. The following applies: source organism: Vibrio parahaemolyticus AQ3810.
Assay [6] has as its target HLA-B*27:03. Described as above. Conditions: source organism: Vibrio parahaemolyticus AQ3810.
Assay [7] deals with HLA-B*51:01. The assay is described as above. Conditions: source organism: Vibrio parahaemolyticus AQ3810.
Assay [8] concerns the target HLA-B*15:01. The assay can be described thus: IEDB peptide-MHC binding, purified MHC/competitive/fluorescence; filed as Kd, often an IC50 or EC50 that approximates it; ≥ and ≤ were set here for values at or beyond the usual limits of such assays.
Another assay concerns the target HLA-B*15:17. The description is as above.
For a further assay, the target named is HLA-B*46:01. The description is as above.
Setting [9] is: source organism: Giardia lamblia ATCC 50803.
[10] abbreviates: source organism: Yersinia pestis Nepal516.
[11] abbreviates: source organism: Escherichia coli O139:H28 str. E24377A.
The mark [12] stands for this setting: source organism: Francisella tularensis subsp. tularensis FSC198.
[13] abbreviates: source organism: Bacillus cereus ATCC 4342.

The text below walks through data of the Immune Epitope Database (IEDB).

What is called Kd is the free concentration of one partner at which half of the binding sites on the other are occupied at equilibrium, for simple one-to-one binding. A higher Kd goes with lower affinity.

As for ISKANWMTY, the Kd with HLA-A*02:01 (setting [9]), with HLA-A*02:03 (setting [9]), in the assay with HLA-A*02:11 (setting [9]), in the assay with HLA-A*02:12 (setting [9]), with HLA-A*02:16 (setting [9]) and in the assay with HLA-A*02:19 (setting [9]) was at least 20 µM in each case. The Kd with HLA-A*03:01 (setting [9]), with HLA-A*24:03 (setting [9]), with HLA-A*26:01 [1] (setting [9]), in the assay with HLA-A*68:02, with HLA-A*69:01 and with HLA-B*18:01 (setting [9]) was at least 20 µM in each case. In addition, the Kd in the assay with HLA-B*27:03 [2] (setting [9]) is at least 20 µM; with HLA-B*39:01 (setting [9]) it was at least 20 µM; with HLA-B*51:01 [3] (setting [9]), at least 20 µM; in the assay with HLA-B*57:01 (setting [9]), 0.0837 µM.
With AAIAVGVAL, the Kd with HLA-C*14:02 is at least 20 µM.
As to NYIDKVRFL, the Kd is 0.004 µM with HLA-C*06:02, at least 20 µM with HLA-A*01:01 (source organism: Homo sapiens) and 0.109 µM in the assay with HLA-A*29:02 (source organism: Homo sapiens).
Consider YSSPHLLRY, for which the Kd came to 0.0103 µM with HLA-A*01:01 (setting [10]), 0.258 µM in the assay with HLA-A*03:01 (setting [10]) and 0.0045 µM with HLA-B*58:01 (setting [10]).
Take YDAHHRFIL: the Kd in the assay with HLA-B*15:09 (source organism: Listeria monocytogenes serotype 4b str. H7858) is at least 20 µM.
For MAYGFFNNI, the Kd in the assay with HLA-A*26:01 [4] is at least 20 µM; with HLA-B*15:01 [5], at least 20 µM; with HLA-B*27:03 [6] it was at least 20 µM; in the assay with HLA-B*51:01 [7] it was 0.03 µM.
Take ITAALAWSL: the dissociation constant Kd in the assay with HLA-A*01:01 (setting [11]) was at least 20 µM; in the assay with HLA-A*02:01 (setting [11]), 0.0725 µM; in the assay with HLA-B*58:01 (setting [11]) it was 0.672 µM.
With IANTTDHFF, the equilibrium dissociation constant (Kd) in the assay with HLA-A*02:01 (setting [9]), with HLA-A*02:03 (setting [9]), in the assay with HLA-A*02:12 (setting [9]), in the assay with HLA-A*02:16 (setting [9]), with HLA-A*02:19 (setting [9]) and in the assay with HLA-A*03:01 (setting [9]) was at least 20 µM in each case. For the same sequence, the Kd with HLA-A*24:03 (setting [9]), in the assay with HLA-A*26:01 [1] (setting [9]), in the assay with HLA-A*68:02, with HLA-A*69:01, in the assay with HLA-B*18:01 (setting [9]) and with HLA-B*27:03 [2] (setting [9]) was at least 20 µM each time. In addition, the Kd in the assay with HLA-B*39:01 (setting [9]) is at least 20 µM; with HLA-B*51:01 [3] (setting [9]), at least 20 µM; with HLA-B*57:01 (setting [9]), 0.159 µM.
Take AILAGEHKC: the Kd with HLA-A*02:01 (setting [9]) is at least 20 µM; in the assay with HLA-A*02:03 (setting [9]), at least 20 µM; with HLA-A*02:11 (setting [9]), at least 20 µM; with HLA-A*02:12 (setting [9]), 3.73 µM; with HLA-A*02:19 (setting [9]), at least 20 µM; with HLA-A*03:01 (setting [9]) it was at least 20 µM. Further, the Kd in the assay with HLA-A*24:03 (setting [9]), with HLA-A*26:01 [1] (setting [9]), in the assay with HLA-A*29:02 (setting [9]), with HLA-B*15:01 [8] (setting [9]), in the assay with HLA-B*15:17 (setting [9]) and in the assay with HLA-B*18:01 (setting [9]) was at least 20 µM throughout. The Kd in the assay with HLA-B*27:03 [2] (setting [9]), with HLA-B*39:01 (setting [9]), with HLA-B*46:01 (setting [9]), in the assay with HLA-B*51:01 [3] (setting [9]) and with HLA-B*57:01 (setting [9]) was at least 20 µM each time.
With TVIEGLDKL, the values for the Kd with HLA-A*02:01 (setting [12]) and in the assay with HLA-A*02:16 (setting [12]) were 0.0884 µM and 0.195 µM, respectively.
As to TMDVYVMIL, the Kd in the assay with HLA-B*15:09 (source organism: Vibrio cholerae V52) was 0.384 µM; in the assay with HLA-B*39:01 (source organism: Vibrio cholerae MAK 757), 0.0123 µM.
For GLFWGGIWY, the dissociation constant Kd was at least 20 µM with HLA-A*02:01 (setting [13]); at least 20 µM in the assay with HLA-A*02:03 (setting [13]); 0.834 µM with HLA-A*02:11 (setting [13]); at least 20 µM in the assay with HLA-A*02:12 (setting [13]); 5.63 µM with HLA-A*02:16 (setting [13]); at least 20 µM with HLA-A*02:19 (setting [13]). The Kd with HLA-A*03:01 (setting [13]), in the assay with HLA-A*24:03 (setting [13]), with HLA-A*26:01 [1] (setting [13]), with HLA-B*15:01 [8] (setting [13]), in the assay with HLA-B*15:17 (setting [13]) and with HLA-B*18:01 (setting [13]) was at least 20 µM throughout. Further, the Kd in the assay with HLA-B*27:03 [2] (setting [13]), in the assay with HLA-B*39:01 (setting [13]), with HLA-B*46:01 (setting [13]), in the assay with HLA-B*51:01 [3] (setting [13]) and with HLA-B*57:01 (setting [13]) was at least 20 µM throughout.
